{"source": "patent US20240335558A1", "about": "“ISOLATED POLYPEPTIDE AND USE THEREOF” (GLYCO-THERAPY BIOTECHNOLOGY CO., LTD., priority 2021, published 2024)", "type_in_all_cases": "biochemical", "key": {"[1]": {"tested_on": "Trastuzumab-(GalNAzβ1,4)GlcNAc", "assay": "HpFT-2HR and HpFT-4HR transferring GDP-FAmP4Biotin or GDP-FAzP4Biotin to Trastuzumab-(GalNAzβ1,4)GlcNAc", "details": "donor 1 mM, enzyme 0.5 mg/mL, 6 h; FIG. 6(B)", "experimental": "To 40 mM Tris-HCl (pH 7.5) buffer were added Trastuzumab-(Fucα1,6)(Galβ1,4)GlcNAc (2 mg/mL final), GDP-FAmP4Biotin (1 mM final), MgCl2 (20 mM final), and different HpFT enzymes (HpFT-4HR, HpFT-4HR(M4), HpFT-4HR(M7), HpFT-6HR, HpFT-3HR, HpFT-2HR, HpFT-1HR or HpFT-0HR) (0.5 mg/mL final) in sequence, and the resulting mixed solution was allowed to react at 30° C. for 1 h. Three parallels were set up for each group. After the reaction time point was reached, to the reaction solution was added 10 mM LacNA, and the reaction was terminated by a desalting column (Zeba™ Spin Desalting Columns/2 ml/40K, Thermo Fisher Scientific), and finally mass spectrometry was carried out and % of conversion was calculated. % of conversion=(MAR0 peak intensity*0+MAR1peak intensity*1+MAR2 peak intensity*2)/2* (MAR0 peak intensity+MAR1 peak intensity+MAR2 peak intensity)*100%.\n(§1) To 40 mM Tris-HCl (pH 7.5) buffer were added Trastuzumab-(GalNAzβ1,4)GlcNAc (2 mg/mL final), GDP-FAmP4Biotin or GDP-FAzP4Biotin (1 mM final), MgCl2 (20 mM final), and HpFT-2HR or HpFT-4HR (0.5 mg/mL final) in sequence, and the resulting mixed solution was allowed to react at 30 t for 6 h. Three parallels were set up for each group. After the reaction time point was reached, to the reaction solution was added 10 mM LacNAc, and the reaction was terminated by a desalting column (Zeba™ Spin Desalting Columns/2 ml/40K, Thermo Fisher Scientific), and finally mass spectrometry was carried out and % of conversion was calculated. % of conversion was calculated according to Example 18."}, "[2]": {"tested_on": "Trastuzumab-(GalNAzβ1,4)GlcNAc", "assay": "HpFT-4HR and HFT6 transferring GDP-FAmP4Biotin to Trastuzumab-(GalNAzβ1,4)GlcNAc", "details": "donor GDP-FAmP4Biotin 1 mM, enzyme 0.5 mg/mL, 30° C., 6 h; FIG. 5B", "description": "Three parallels were set up for each group. After the reaction time point was reached, to the reaction solution was added 10 mM LacNAc, and the reaction was terminated by a desalting column (Zeba™ Spin Desalting Columns/2 ml/40K, Thermo Fisher Scientific), and finally mass spectrometry was carried out and % of conversion was calculated. […] For Trastuzumab-(GalNAzβ1,4)GlcNAc, % of conversion was calculated according to Example 18."}, "Trastuzumab-G2F [3]": {"tested_on": "Trastuzumab-G2F", "assay": "HpFT-2HR and HpFT-4HR transferring GDP-FAmP4Biotin or GDP-FAzP4Biotin to Trastuzumab-G2F", "details": "donor 1 mM, enzyme 0.5 mg/mL, 30° C., 6 h; FIG. 6(A)", "experimental": "To 40 mM Tris-HCl (pH 7.5) buffer were added Trastuzumab-G2F (2 mg/mL final), GDP-FAmP4Biotin (1 mM final), MgCl2 (20 mM final), and different HpFT enzymes (HpFT-4HR, HpFT-4HR(M4), HpFT-4HR(M7), HpFT-6HR, HpFT-3HR, HpFT-2HR, HpFT-1HR, or HpFT-0HR) (0.5 mg/mL final) in sequence, and the resulting mixed solution was allowed to react at 30° C. for 3 h. Three parallels were set up for each group. After the reaction time point was reached, to the reaction solution was added 10 mM LacNAc (N-acetyl-D-lactosamine), and the reaction was terminated by a desalting column (Zeba™ Spin Desalting Columns/2 ml/40K, Thermo Fisher Scientific), and finally mass spectrometry was carried out and % of conversion was calculated. % of conversion=(MAR0 peak intensity*0+MAR1peak intensity*1+MAR2 peak intensity*2+MAR3 peak intensity*3+MAR4 peak intensity*4)/4* (MAR0 peak intensity+MAR1 peak intensity+MAR2 peak intensity+MAR3 peak intensity+MAR4 peak intensity)*100%.\nas §1, with “Trastuzumab-G2F” for “Trastuzumab-(GalNAzβ1,4)GlcNAc”, “30° C.” for “30 t”, “17.” for “18.”"}, "Trastuzumab-G2F [4]": {"tested_on": "Trastuzumab-G2F", "assay": "HpFT-4HR and HFT6 transferring GDP-FAmP4Biotin to Trastuzumab-G2F", "details": "donor GDP-FAmP4Biotin 1 mM, enzyme 0.5 mg/mL, 30° C., 6 h; FIG. 5A"}}}
{"molecule": "HpFT-4HR: reported α-1,3 fucosyltransferase (Wu P. et al.): catalytically active domain, four heptapeptide repeat sequences, C-terminus His tag (protein, Catalytically active domain of Helicobacter pylori Alpha-(1,3)-fucosyltransferase (GenBank No.AAD07710.1) with 4 heptapeptide repeats and a C-terminal His tag) MFQPLLDAFIESASIEKMVSKSPPPPLKIAVANWWGDEEIKEFKKSVLYFILSQRYAITLHQNPNESSDLVFSNPLGAARKILSYQNTKRVFYTGENESPNFNLFDYAIGFDELDFNDRYLRMPLYYAHLHYEAELVNDTTAPYKLKDNSLYALKKPSHHFKENHPNLCAVVNDESDLLKRGFASFVASNANAPMRNAFYDALNSIEPVTGGGSVRNTLGYKVGNKSEFLSQYKFNLCFENSQGYGYVTEKILDAYFSHTIPIYWGSPSVAKDFNPKSFVNVHDFNNFDEAIDYIKYLHTHPNAYLDMLYENPLNTLDGKAYFYQDLSFKKILDFFKTILENDTIYHNNPFIFYRDLHEPLISIDDLRVNYDDLRVNYDDLRVNYDDLRVNYLEHHHHHH", "values": [{"measurement": "activity in catalyzing the transfer of GDP-FAmP4Biotin relative to transfer of GDP-FAzP4Biotin", "setting": "[1]", "result": "significantly higher"}, {"measurement": "catalytic activity (% of conversion), HpFT-4HR versus HFT6", "setting": "[2]", "result": "much higher than that of human-derived fucosyltransferase HFT6"}, {"measurement": "activity in catalyzing the transfer of GDP-FAmP4Biotin relative to transfer of GDP-FAzP4Biotin", "setting": "Trastuzumab-G2F [3]", "result": "significantly higher"}, {"measurement": "catalytic activity (% of conversion), HpFT-4HR versus HFT6", "setting": "Trastuzumab-G2F [4]", "result": "much higher than that of human-derived fucosyltransferase HFT6"}]}
